B1: Azoarcus group I ribozyme (parent)
chain: GUGCCUUGCGCCGGGAAACCACGCAAGGGAUGGUGUCAAAUUCGGCGAAACCUAAGCGCCCGCCCGGGCGUAUGGCAACGCCGAGCCAAGCUUCGGCGCCUGCGCCGAUGAAGGUGUAGAGACUAGACGGCACCCACCUAAGGCAAACGCUAUGGUGAAGGCAUAGUCCAGGGAGUGGCGAAAGUCACACAAACCGG

This is an account of results in the RNAGym collection of RNA variant scans (doi:10.1093/molbev/msab373).

In the data set the parent is B1. Nature of the data set: reverse-splicing fitness (ratio to wild type); higher = more active; in vitro selection; Mg2+ level not given. The procedure, abridged:
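An in vitro group I ribozyme library with randomized positions was T7-transcribed and gel-purified. In triplicate, 10 pmol RNA in EPPS pH 7.5 was reacted with 50 pmoles of a 30-nt RNA substrate for 1 h at 37 °C across several added MgCl2 levels (1–48 mM), then stopped with EDTA. Products were reverse transcribed from a substrate-complementary primer, PCR-amplified and sequenced (HiSeq 4000). Fitness is a variant's read proportion after selection over that before, normalised to wild type.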
As to C82U A111U A120C A145C, the reverse-splicing fitness was found to be 0.0238.

For C82U A111G A145G C150U U176G, the reverse-splicing fitness is 0.0312.

For C82A A111G A145G C150U U176C, the reverse-splicing fitness is 0.174.

In the case of C82G A111G A120C A145U U176G, the reverse-splicing fitness was 0.00776.

Consider A120U A145G C150A C169A U176A, for which the reverse-splicing fitness was found to be 0.00533.

With A120U A145G C150A C169A U176C, the reverse-splicing fitness amounted to 0.00372.

As for C82U A111C A120U C150A C169U U176A, the reverse-splicing fitness was determined as 0.00699.

As to A111U A120C A145G C169U U176G, the reverse-splicing fitness is 0.00517.

As to A120U A145G C150A C169G U176A, the reverse-splicing fitness was found to be 0.012.

As to A120C C150U C169G U176A, the reverse-splicing fitness came to 0.0153.

C82G A111G A120C A145C C150U C169U U176G: the reverse-splicing fitness is 0.00553.

For the variant C82A A111C A120U C150U C169G U176G, the reverse-splicing fitness was 0.00288.

Consider A111U A120U A145G C150A C169G U176G, for which the reverse-splicing fitness was found to be 0.00267.

Turning to A120G A145C C169U, the reverse-splicing fitness is 0.435.

For A111U A145C C150A U176C, the reverse-splicing fitness turned out to be 0.127.

In the case of C82U A111C A120U A145U C169U U176A, the reverse-splicing fitness turned out to be 0.00256.

For the variant A111G A120U A145U C150G U176G, the reverse-splicing fitness is 0.00462.

Turning to C82U A145G C150G, the reverse-splicing fitness was found to be 0.0812.

As to A145U C150A C169A, the reverse-splicing fitness turned out to be 0.0212.

C82A A111U A120U C150A C169G U176A: the reverse-splicing fitness worked out at 0.00956.

Take C82G C150U U176G: the reverse-splicing fitness was 0.0728.

For C82G A120U C169G U176A, the reverse-splicing fitness came out at 0.00367.

On to C82G A111C A120C C150U C169U U176A, for which the reverse-splicing fitness came out at 0.0158.

As for A111C C169G U176A, the reverse-splicing fitness was 0.0217.

A111C A120G A145U C150G C169G U176A: the reverse-splicing fitness was determined as 0.00713.

With A120U A145G C150U C169G U176A, the reverse-splicing fitness amounted to 0.0289.

C82G A111C A145G C150U U176A: the reverse-splicing fitness amounted to 0.0896.

For C82U A111C A120U A145U C150U C169A U176A, the reverse-splicing fitness turned out to be 0.00306.

Take A111C A120U A145G C150U C169A U176G: the reverse-splicing fitness came to 0.00278.

In the case of C82U A120C A145U C150A U176C, the reverse-splicing fitness amounted to 0.0137.

As to C82A A111U A120U A145C C150A, the reverse-splicing fitness was found to be 0.00524.

For A111G A120C A145U C150A C169A U176A, the reverse-splicing fitness is 0.0107.

Consider A111G A120C A145U C150A C169A U176C, for which the reverse-splicing fitness came to 0.00676.

With C82U C150G C169G U176A, the reverse-splicing fitness was 0.00631.

Consider C82A A120C A145C C150U C169U U176G, for which the reverse-splicing fitness is 0.00452.

For the variant C82G A120C C150A C169A, the reverse-splicing fitness came out at 0.0151.

As to C82G A111G A120G A145U C150G C169G U176C, the reverse-splicing fitness was 0.00676.

Turning to C82U A111U A120U A145C C150G U176C, the reverse-splicing fitness amounted to 0.00408.

Take A111U A145U C150U C169G U176A: the reverse-splicing fitness stood at 0.016.

With A111C A120U A145C C150U C169G U176A, the reverse-splicing fitness is 0.00383.

Regarding C150A C169A U176A, the reverse-splicing fitness was 0.0214.

On to C82G A111U A120U C150G C169U U176C, for which the reverse-splicing fitness turned out to be 0.00541.

As to C82G A111U A120G A145U C150A C169A, the reverse-splicing fitness amounted to 0.00975.

Consider C82A A111G A120C A145U C169A, for which the reverse-splicing fitness turned out to be 0.00859.

With A145G C169A U176G, the reverse-splicing fitness turned out to be 0.00541.

For A111C A120C A145G C150G C169G U176G, the reverse-splicing fitness was determined as 0.00553.

A111C A120U C150U C169G: the reverse-splicing fitness was 0.0296.

For the variant A111U A120U C150U C169G U176C, the reverse-splicing fitness amounted to 0.00679.

In the case of C82U A120G A145C C150U C169A, the reverse-splicing fitness was 0.00913.

For the variant C82G A111G A120G A145G C150G C169U U176C, the reverse-splicing fitness was determined as 0.0129.

As for A111G A120C A145U C150A C169U U176C, the reverse-splicing fitness was determined as 0.0177.

C82G A111C A145U C150U C169U U176A: the reverse-splicing fitness was 0.0161.

As to C82A A111U A120U A145G C150A U176C, the reverse-splicing fitness worked out at 0.00989.

For A120C A145C C150G C169A U176G, the reverse-splicing fitness came out at 0.00424.

On to C82G A111U A145C C150G C169G U176A, for which the reverse-splicing fitness amounted to 0.00943.

Consider C82G A111C C169A U176C, for which the reverse-splicing fitness worked out at 0.023.

On to C82G A145U C150A C169U, for which the reverse-splicing fitness is 0.00756.

Regarding C82G A111C A145G C150A C169U U176G, the reverse-splicing fitness is 0.00863.

Regarding C82G A111G A120C, the reverse-splicing fitness was 0.0886.

Consider A111C A120G C150A C169U U176A, for which the reverse-splicing fitness was 0.0211.

Take C82A A111C A120U A145G C169A: the reverse-splicing fitness was 0.00372.

In the case of A120G C150A, the reverse-splicing fitness was found to be 0.0647.

Consider C82U A120G A145G C150U U176A, for which the reverse-splicing fitness came out at 0.00967.

With C82G A120U C150U C169U, the reverse-splicing fitness was 0.00575.

C82U A111G A145U C150U C169G U176C: the reverse-splicing fitness turned out to be 0.0105.

With C82A A111C A145C C150A C169G, the reverse-splicing fitness is 0.0093.

For A111C A120U, the reverse-splicing fitness was found to be 0.659.

Consider A120U A145C C150U C169U, for which the reverse-splicing fitness came to 0.0928.

As to C82A A111C A145G C150A C169G U176G, the reverse-splicing fitness was determined as 0.0087.

A111C A145G C150A C169G U176C: the reverse-splicing fitness was 0.0293.

As to C82G A111C C150G U176A, the reverse-splicing fitness came to 0.00967.

Consider C82U A111C A145C C150U C169A U176C, for which the reverse-splicing fitness came out at 0.01.

As for C82U A111C A145C C150U C169A U176G, the reverse-splicing fitness amounted to 0.00687.

C82G A120G A145G C150U U176G: the reverse-splicing fitness was 0.0072.

As to C82U A111C A120C, the reverse-splicing fitness is 0.0271.

Consider A111G A120U A145C C150A C169A U176A, for which the reverse-splicing fitness amounted to 0.00282.

Turning to A145C C150G, the reverse-splicing fitness was 0.525.

C82G A111C A120C A145G C150U C169G U176C: the reverse-splicing fitness was 0.0162.

With C82A A111G A145G C150G C169A U176A, the reverse-splicing fitness stood at 0.0148.

Turning to C82G A111G A120U A145U C150G C169A, the reverse-splicing fitness was found to be 0.00331.

In the case of A111C A145U C150G U176A, the reverse-splicing fitness came to 0.0925.

In the case of C82A A120G A145G C169U U176G, the reverse-splicing fitness was found to be 0.0046.

Take A111U A120G A145C C150A C169G U176G: the reverse-splicing fitness was 0.00529.
